Molecular target: the molecule itself
Experiment: static light scattering

B1: UgR76, uncharacterized 73 residue domain from Ruminococcus gnavus (domain or fragment)
chain: MSEHREGTLFYDTETGRYDIRFDLESFYGGLHCGECFDVKVKDVWVPVRIEMGDDWYLVGLNVSRLDGLRVRMLEHHHHHH
  stoichiometry N: 2

— publication PMC3692002 (Proteins, 2011)
